From patent US20240067748A1 (NONA BIOSCIENCES SUZHOU, published 2024)

Target: T1, mouse Trop2-his protein (Sino Biological, #50922-M08H) (mouse, UniProt Q8BGV3 25-270)
T1 construct: bought protein; also called mouse Trop2 protein; not shown: his tag
T1 sequence (looked up): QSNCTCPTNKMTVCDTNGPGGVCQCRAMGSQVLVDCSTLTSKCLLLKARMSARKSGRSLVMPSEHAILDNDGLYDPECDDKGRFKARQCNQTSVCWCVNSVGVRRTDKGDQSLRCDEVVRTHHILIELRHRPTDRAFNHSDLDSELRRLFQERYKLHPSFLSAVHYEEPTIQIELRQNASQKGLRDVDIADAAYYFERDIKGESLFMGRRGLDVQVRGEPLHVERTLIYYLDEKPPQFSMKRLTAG
Experiment: ELISA, plate coated with mouse Trop2-his protein
Protocol: An ELISA plate was coated with 100 μL of 1 μg/mL mouse Trop2-his protein (Sino Biological, #50922-M08H) in PBS at 4° C. overnight. The plate was blocked with 200 μL of PBST (PBS+0.05% tween 20)+2% BSA at 37° C. for 1 h. The plate was washed 4 times with PBST. 100 μL of Trop2 antibody diluted in a gradient (5-fold dilution, starting concentration: 33.33 nM) was added to the ELISA plate and the plate was incubated at 37° C. for 1 h. The plate was washed 4 times with PBST. 100 μL of anti-human IgG (H+L)-HRP (Sigma, #A8667) diluted in 1:4000 was added and the plate was incubated at 37° C. for 1 h. The plate was washed 4 times with PBST. 100 μL of TMB substrate (Invitrogen, #88-7025-88) was added and the plate was incubated at room temperature for 5 min, and then 50 μL of stop buffer (BBI life sciences, #E661006-0200) was added to stop the reaction. The OD450 nm reading was recorded using a microplate reader (Perkin Elmer, EnSpire).

B1: comparative example 2 antibody Tab (hRS7) (antibody, human IgG1, kappa, V domains shown)
VH: QVQLQQSGSELKKPGASVKVSCKASGYTFTNYGMNWVKQAPGQGLKWMGWINTYTGEPTYTDDFKGRFAFSLDTSVSTAYLQISSLKADDTAVYFCARGGFGSSYWYFDVWGQGSLVTVSS
VL: DIQLTQSPSSLSASVGDRVSITCKASQDVSIAVAWYQQKPGKAPKLLIYSASYRYTGVPDRFSGSGSGTDFTLTISSLQPEDFAVYYCQQHYITPLTFGAGTKVEIKR
notes: prepared on the basis of sacituzumab govitecan (ChemPartner, #T07-001); naked antibody
binding result: no binding (tested: 33.33 nM (starting concentration))
